Source: article PMC3659392 (Science translational medicine, 2012)

Columns and labels:
DprE1 [1] = molecular target: T1, DprE1 (Mycolicibacterium smegmatis, UniProt A0R607); test: DCPIP enzyme assay, […] min incubation; type: biochemical
T1 sequence (A0R607 1-460): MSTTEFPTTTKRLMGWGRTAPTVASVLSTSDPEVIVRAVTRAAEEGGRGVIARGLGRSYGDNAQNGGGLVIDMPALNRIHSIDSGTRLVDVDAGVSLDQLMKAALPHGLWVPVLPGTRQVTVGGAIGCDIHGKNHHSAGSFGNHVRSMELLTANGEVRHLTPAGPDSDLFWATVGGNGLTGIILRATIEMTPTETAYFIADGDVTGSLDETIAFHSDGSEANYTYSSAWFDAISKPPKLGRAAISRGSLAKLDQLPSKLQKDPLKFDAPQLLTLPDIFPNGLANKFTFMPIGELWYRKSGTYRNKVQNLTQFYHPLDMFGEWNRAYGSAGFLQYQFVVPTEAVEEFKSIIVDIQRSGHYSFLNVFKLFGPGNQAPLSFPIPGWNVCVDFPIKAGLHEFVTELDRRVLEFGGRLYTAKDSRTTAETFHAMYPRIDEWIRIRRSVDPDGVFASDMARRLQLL

DprE1 [2] = molecular target: T1, DprE1; test: crystal structure of covalent adduct; type: biochemical
purified protein [3] = substrate: O=C1C(Cl)=CC(=Nc2ccc(O)cc2)C=C1Cl; test: purified protein; details: FAD electron acceptor re-oxidizing reduced FAD
purified protein [4] = substrate: CC(C)=CCC/C(C)=C/CC/C(C)=C/COP(=O)(O)O[C@@H]1O[C@H](CO)[C@@H](O)[C@H]1O; test: purified protein; details: FAD; pH 8.5

## C[C@H]1COC2(CCN(c3nc(=O)c4cc(C(F)(F)F)cc(NO)c4s3)CC2)O1 [BTZ046]
DprE1 [1]
  IC50: 19.7 µM

## C[C@H]1COC2(CCN(c3nc(=O)c4cc(C(F)(F)F)cc([N+](=O)[O-])c4s3)CC2)O1 [BTZ043]
DprE1 [2]
  IC50: 4.5 µM

## C[C@H]1COC2(CCN(c3nc(=O)c4cc(C(F)(F)F)cc(N)c4s3)CC2)O1 [BTZ045]
DprE1 [1]
  IC50: 11 µM

B1: DprE1 (Mycolicibacterium smegmatis MC2 155) (protein)
chain: MSTTEFPTTTKRLMGWGRTAPTVASVLSTSDPEVIVRAVTRAAEEGGRGVIARGLGRSYGDNAQNGGGLVIDMPALNRIHSIDSGTRLVDVDAGVSLDQLMKAALPHGLWVPVLPGTRQVTVGGAIGCDIHGKNHHSAGSFGNHVRSMELLTANGEVRHLTPAGPDSDLFWATVGGNGLTGIILRATIEMTPTETAYFIADGDVTGSLDETIAFHSDGSEANYTYSSAWFDAISKPPKLGRAAISRGSLAKLDQLPSKLQKDPLKFDAPQLLTLPDIFPNGLANKFTFMPIGELWYRKSGTYRNKVQNLTQFYHPLDMFGEWNRAYGSAGFLQYQFVVPTEAVEEFKSIIVDIQRSGHYSFLNVFKLFGPGNQAPLSFPIPGWNVCVDFPIKAGLHEFVTELDRRVLEFGGRLYTAKDSRTTAETFHAMYPRIDEWIRIRRSVDPDGVFASDMARRLQLL
Purified protein [3]
  Km: 4.2 µM
Purified protein [4]
  Km: 110 µM
  kcat: 0.212 ± 0.01 s⁻¹
  kcat/Km: 1930 ± 182 M⁻¹ s⁻¹
